Measured values taken from patent US20100233095A1.
pyrene = pyrene (fluorescent label)

Target: fibrillar amyloid target protein (UniProt P05067)
Experiment: pyrene excimer:monomer fluorescence ratio of di-pyrene probe in the presence of fibrillar amyloid target protein

B1: Peptide 22 (SEQ ID NO:2) (peptide)
peptide: pyrene-KLVFFAEDVGSNKHAIIELMK(pyrene)-NH2
maximal signal gain relative to the reference peptide (SEQ ID NO:1): 2.6 fold
